Measured values: patent publication US20220396612A1 (UNIVERSIT DE TOURS, published 2022)

T1: virus-like particles (VLPs) of BK polyomavirus VP-1 protein, serotype Ia (BK virus (BKPyV), serotype Ia, UniProt P03088 1-361)
T1 construct: self-assembled native VLPs coated on ELISA plates; also called VLP Ia; BKV VP-1, serotype Ia
T1 chain: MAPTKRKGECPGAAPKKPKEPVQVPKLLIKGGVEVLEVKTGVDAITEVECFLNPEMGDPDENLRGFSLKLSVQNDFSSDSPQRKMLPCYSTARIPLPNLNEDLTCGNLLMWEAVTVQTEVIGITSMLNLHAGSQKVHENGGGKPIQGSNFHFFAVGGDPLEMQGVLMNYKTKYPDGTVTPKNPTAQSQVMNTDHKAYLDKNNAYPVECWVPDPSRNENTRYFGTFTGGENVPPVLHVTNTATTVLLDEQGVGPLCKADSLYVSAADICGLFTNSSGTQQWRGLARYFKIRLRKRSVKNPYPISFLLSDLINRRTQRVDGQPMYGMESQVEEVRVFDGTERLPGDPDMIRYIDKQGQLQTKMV

T2: virus-like particles (VLPs) of BK polyomavirus VP-1 protein, serotype Ib2 (BK virus (BKPyV), serotype Ib2, PA …, UniProt P03088 1-362)
T2 construct: native VLPs; also the immunogen; also called VLP Ib2; BK Ib2
T2 chain: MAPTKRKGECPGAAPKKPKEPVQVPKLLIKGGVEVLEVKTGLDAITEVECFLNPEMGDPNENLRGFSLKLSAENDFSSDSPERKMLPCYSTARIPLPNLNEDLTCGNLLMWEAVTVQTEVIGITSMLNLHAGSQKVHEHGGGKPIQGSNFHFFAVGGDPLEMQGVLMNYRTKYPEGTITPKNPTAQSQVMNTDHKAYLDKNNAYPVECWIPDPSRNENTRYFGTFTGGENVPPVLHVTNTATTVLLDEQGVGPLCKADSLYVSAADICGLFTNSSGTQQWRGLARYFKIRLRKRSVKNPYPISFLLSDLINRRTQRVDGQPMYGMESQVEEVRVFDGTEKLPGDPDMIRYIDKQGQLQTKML

T3: virus-like particles (VLPs) of BK polyomavirus VP-1 protein, serotype II (BK virus (BKPyV), serotype II, UniProt P14996 1-362)
T3 construct: native VLPs; also called VLP II
T3 chain: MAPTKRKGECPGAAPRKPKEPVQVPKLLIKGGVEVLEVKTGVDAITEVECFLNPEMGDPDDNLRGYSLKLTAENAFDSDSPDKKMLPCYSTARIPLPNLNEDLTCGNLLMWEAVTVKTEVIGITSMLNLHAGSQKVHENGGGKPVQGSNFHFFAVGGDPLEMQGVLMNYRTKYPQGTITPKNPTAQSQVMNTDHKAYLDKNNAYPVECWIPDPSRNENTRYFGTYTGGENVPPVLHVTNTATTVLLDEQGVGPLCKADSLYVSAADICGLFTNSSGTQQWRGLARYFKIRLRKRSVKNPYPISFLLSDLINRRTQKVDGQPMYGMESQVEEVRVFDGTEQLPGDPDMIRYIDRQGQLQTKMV

T4: virus-like particles (VLPs) of BK polyomavirus VP-1 protein, serotype III (BK virus (BKPyV), serotype III, UniProt P14996 1-362)
T4 construct: native VLPs; also called VLP III
T4 chain: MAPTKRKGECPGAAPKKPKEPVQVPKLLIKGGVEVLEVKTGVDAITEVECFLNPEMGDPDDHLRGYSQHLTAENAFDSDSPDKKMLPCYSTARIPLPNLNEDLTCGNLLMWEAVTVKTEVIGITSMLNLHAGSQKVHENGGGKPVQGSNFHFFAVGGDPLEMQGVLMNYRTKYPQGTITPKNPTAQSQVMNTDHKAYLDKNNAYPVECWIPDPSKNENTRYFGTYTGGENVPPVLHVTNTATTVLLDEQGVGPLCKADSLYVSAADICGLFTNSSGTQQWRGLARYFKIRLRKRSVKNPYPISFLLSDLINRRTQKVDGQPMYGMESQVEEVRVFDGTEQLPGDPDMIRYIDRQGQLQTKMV

T5: virus-like particles (VLPs) of BK polyomavirus VP-1 protein, serotype IV (BK virus (BKPyV), serotype IV, UniProt P14996 1-362)
T5 construct: native VLPs; also called VLP IV
T5 chain: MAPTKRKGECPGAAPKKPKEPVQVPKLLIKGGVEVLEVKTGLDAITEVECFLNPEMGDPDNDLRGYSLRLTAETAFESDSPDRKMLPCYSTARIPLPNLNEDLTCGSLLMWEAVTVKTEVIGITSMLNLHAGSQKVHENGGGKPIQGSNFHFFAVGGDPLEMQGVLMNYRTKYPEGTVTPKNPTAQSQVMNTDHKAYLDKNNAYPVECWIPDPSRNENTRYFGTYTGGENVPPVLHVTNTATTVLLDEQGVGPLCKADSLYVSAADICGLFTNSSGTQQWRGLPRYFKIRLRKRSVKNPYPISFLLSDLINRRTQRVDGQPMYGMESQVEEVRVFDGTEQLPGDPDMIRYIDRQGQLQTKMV

B1: monoclonal antibody ‘18A2’ derived from hybridoma 18A2 (antibody, V domains shown)
VH: DVQLQESGPGLVKPSQSLSLTCSVTGYSITSGYYWNWIRQFPGNKLEWMGYISYDGSNNYNPSLKNRISITRDTSKNQFFLKLNSVTTEDTATYYCARWEGTTDYWGQGTTLTVSS
VL: not shown
notes: Mouse hybridoma antibody
B2: monoclonal antibody ‘F6’ secreted by clone BK6A2F6 (antibody)
heavy: EVQLQQSGPELVKPGASVKISCKASGYSFTGYFMNWVKQSHGKSLEWIGRINPYNGDTFYNQKFKGKATLTVDKSSSTAHMELLSLTSEDSAVYYCGSYYYGDYFDYWGQGTTLTVSSAKTTPPSVYPLAPGSAAQTNSMVTLGCLVKGYFPEPVTVTWNSGSLSSGVHTFPAVLQSDLYTLSSSVTVPSSTWPSETVTCNVAHPASSTKVDKKIVPRDCGCKPCICTVPEVSSVFIFPPKPKDVLTITLTPKVTCVVVDISKDDPEVQFSWFVDDVEVHTAQTQPREEQFNSTFRSVSELPIMHQDWLNGKEFKCRVNSAAFPAPIEKTISKTKGRPKAPQVYTIPPPKEQMAKDKVSLTCMITDFFPEDITVEWQWNGQPAENYKNTQPIMDTDGSYFVYSKLNVQKSNWEAGNTFTCSVLHEGLHNHHTEKSLSHSPGK
light: […]
B3: monoclonal antibody ‘H6’ secreted by clone BK6A2H6 (antibody, V domains shown)
VH: EVQLQQSGPELVKPGASVKISCKASGYSFTGYFMNWVKQSHGKSLEWIGRINPYNGDTFYNQKFKGKATLTVDKSSSTAHMELLSLTSEDSAVYYCGSYYYGDYFDYWGQGTTLTVSS
VL: SIVMTQIPKFLLVSEGDRVTITCKASQSVSNDVAWYQQKSGQSPKLLIYYASNRYTGVPDRFTGSGYGTDFTFTISTVQAEDLAVYFCQQDYSSPLTFGAGTKLELKR

What was measured:
[1] = target: T1, virus-like particles (VLPs) of BK …; test: ELISA on coated VLP;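 note: hybridoma culture supernatants (mouse antibodies) tested on wells coated with 1 µg/mL VLPs, peroxidase anti-mouse detection with OPD, background from PBS-coated control wells subtracted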
Experimental: (§1) To do this, the VLPs produced were deposited at a concentration of 1 μg/mL in PBS and incubated overnight at +4° C. The wells were then blocked for 1 h at +37° C. with a PBS/FCS (phosphate-buffered saline/fetal calf serum) mixture. After dilution in a dilution buffer containing FCS, PBS and Tween® 20, the various hybridoma culture supernatants were added for 1 h at +37° C. The wells were washed four times in a row with Wash Buffer and a secondary anti-mouse antibody coupled to peroxidase was added to the 1:2000 dilution for 1 h at +37° C. The wells were washed four more times and the substrate (OPD (ortho phenylene diamine)+H₂O₂) was added for 30 min at room temperature. A stop solution (H₂SO₄ 4N) was then added and each well was read by measuring the absorbance at 492 nm with a spectrophotometer. The value obtained for the average of the control wells (PBS in the first step) is subtracted from the optical density values obtained for each well.

[2] = target: T2, virus-like particles (VLPs) of BK …; test: ELISA on coated VLP;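 note: hybridoma culture supernatants (mouse antibodies) tested on wells coated with 1 µg/mL VLPs, peroxidase anti-mouse detection with OPD, background from PBS-coated control wells subtracted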
Experimental: as §1

[3] = target: T3, virus-like particles (VLPs) of BK …; test: ELISA on coated VLP;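 note: hybridoma culture supernatants (mouse antibodies) tested on wells coated with 1 µg/mL VLPs, peroxidase anti-mouse detection with OPD, background from PBS-coated control wells subtracted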
Experimental: as §1

[4] = target: T4, virus-like particles (VLPs) of BK …; test: ELISA on coated VLP;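 note: hybridoma culture supernatants (mouse antibodies) tested on wells coated with 1 µg/mL VLPs, peroxidase anti-mouse detection with OPD, background from PBS-coated control wells subtracted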
Experimental: as §1

[5] = target: T5, virus-like particles (VLPs) of BK …; test: ELISA on coated VLP
Experimental: as §1

[6] = target: T6, virus-like particles (VLPs) of JC polyomavirus VP-1 protein (JC virus (JCPyV), UniProt P03089 1-354, Assembled into virus-like particles (many VP-1 copies); the letters give one VP-1 chain.); test: ELISA on coated JCPyV VLPs
T6 construct: Expressed in insect cells by baculovirus; VLPs coated on ELISA plates; also called JCPyV VLPs; JCPyV

[7] = target: T2, virus-like particles (VLPs) of BK …; test: ELISA on coated VLP (detection limit OD>0.5)
Experimental: as §1

[8] = target: T6, virus-like particles (VLPs) of JC …; test: ELISA on coated VLP (detection limit OD>0.5)
Experimental: as §1

[9] = target: T1, virus-like particles (VLPs) of BK …; test: ELISA on not denatured VLP (threshold OD>0.5)
Experimental: (§2) The wells were then blocked for 1 hour at +37° C. with a PBS/SVF mixture. After dilution in a dilution buffer containing SVF, PBS and Tween® 20, the individual culture supernatants or purified antibodies were added for 1 hour at +37° C. The wells were washed four times in a row with Wash Buffer and a secondary anti-mouse peroxidase antibody was added to the 1/2000 dilution for 1 hour at +37° C. The wells were washed again four times in a row and the substrate was added for 30 minutes at room temperature. A stop solution was added and then each well was read by measuring the absorbance at 492 nm with a spectrophotometer. The value obtained for the average of the control wells (PBS in the first step) was subtracted from the optical density values obtained for each well (detection threshold: OD>0.5).

[10] = target: T5, virus-like particles (VLPs) of BK …; test: ELISA on not denatured VLP (threshold OD>0.5)
Experimental: as §2

T6 sequence (P03089 whole entry): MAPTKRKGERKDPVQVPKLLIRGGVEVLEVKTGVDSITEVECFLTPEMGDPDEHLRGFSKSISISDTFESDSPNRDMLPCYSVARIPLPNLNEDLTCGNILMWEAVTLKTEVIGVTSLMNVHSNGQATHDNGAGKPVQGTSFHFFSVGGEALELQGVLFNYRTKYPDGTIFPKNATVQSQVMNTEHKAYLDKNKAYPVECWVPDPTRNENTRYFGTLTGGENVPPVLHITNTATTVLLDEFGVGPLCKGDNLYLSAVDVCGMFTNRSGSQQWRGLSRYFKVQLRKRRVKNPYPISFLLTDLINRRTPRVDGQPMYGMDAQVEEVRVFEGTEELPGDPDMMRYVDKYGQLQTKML

Row | Binder | OD 492 nm [1] [OD] | OD 492 nm [2] [OD] | OD 492 nm [3] [OD] | OD 492 nm [4] [OD] | OD 492 nm [5] [OD] | binding result [6] | OD 492 nm [7] [OD] | OD 492 nm [8] [OD] | OD 492 nm [9] [OD] | OD 492 nm [10] [OD]
1 | B1 | 2.22 | 3.02 | 1.05 | 0.763 | 1.22 | no binding (tested: detection limit: OD>0.5) | 0.565 | 0.116 | 3.84 | 2.99
2 | B2 | 3.23 | 2.89 | 1.65 | 0.42 | 3.16 | no binding (tested: detection limit: OD>0.5) | 3 | 0.028 | 3.94 | 0.788
3 | B3 | 3.06 | 3.19 | 0.86 | 0.481 | 3.21 | no binding (tested: detection limit: OD>0.5) | 2.97 | 0.013 | – | –
